Consider one molecule from paper PMC5123862, “Characterization of human translesion DNA synthesis across a UV-induced DNA lesion” (eLife, 2016).

Experiment [1] addresses T1, Cy5-labeled PCNA (human PCNA site-specifically labeled with Cy5 at amino acid residue 107) (human, UniProt P12004 1-261, Cy5 at amino acid residue 107). In words: FRET or BRET; competitive inhibition: pre-assembled Cy3-Pol η•Cy5-PCNA complex (200 nM Cy3-Pol η, 20 nM Cy5-PCNA) titrated with unlabeled competitor (PCNA, (Ub)3-PCNA or pol η, 0-5 μM); dose-response model, Ki from IC50 by the Munson-Rodbard solution; room temperature; replication assay buffer, ionic strength 200 mM. Conditions: both partners purified.

Experiment [2] addresses T1, Cy5-labeled PCNA (human PCNA …). As to the kind of experiment: FRET or BRET; holoenzyme assembly: RFC (100 nM), Cy5-PCNA (100 nM) and forked Cy3-P/T DNA (100 nM, biotin/Neutravidin) pre-incubated with 1 mM ATP, titrated with unlabeled pol η; FRET between DNA and PCNA (I670/I570); one-site binding model; room temperature; ionic strength 200 mM. Conditions: both partners purified.

T1 sequence (P12004 whole entry N107C): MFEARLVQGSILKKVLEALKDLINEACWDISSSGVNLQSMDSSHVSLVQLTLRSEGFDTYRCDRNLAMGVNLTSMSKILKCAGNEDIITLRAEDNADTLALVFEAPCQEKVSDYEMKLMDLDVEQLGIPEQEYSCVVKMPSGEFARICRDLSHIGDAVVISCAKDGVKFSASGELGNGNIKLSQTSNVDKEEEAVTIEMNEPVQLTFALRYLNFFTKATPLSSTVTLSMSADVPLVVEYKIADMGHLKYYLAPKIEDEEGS

B1: Pol η (human DNA polymerase eta, full length, wild type, unlabeled) (enzyme, UniProt Q9Y253 1-713, looked up)
chain: MATGQDRVVALVDMDCFFVQVEQRQNPHLRNKPCAVVQYKSWKGGGIIAVSYEARAFGVTRSMWADDAKKLCPDLLLAQVRESRGKANLTKYREASVEVMEIMSRFAVIERASIDEAYVDLTSAVQERLQKLQGQPISADLLPSTYIEGLPQGPTTAEETVQKEGMRKQGLFQWLDSLQIDNLTSPDLQLTVGAVIVEEMRAAIERETGFQCSAGISHNKVLAKLACGLNKPNRQTLVSHGSVPQLFSQMPIRKIRSLGGKLGASVIEILGIEYMGELTQFTESQLQSHFGEKNGSWLYAMCRGIEHDPVKPRQLPKTIGCSKNFPGKTALATREQVQWWLLQLAQELEERLTKDRNDNDRVATQLVVSIRVQGDKRLSSLRRCCALTRYDAHKMSHDAFTVIKNCNTSGIQTEWSPPLTMLFLCATKFSASAPSSSTDITSFLSSDPSSLPKVPVTSSEAKTQGSGPAVTATKKATTSLESFFQKAAERQKVKEASLSSLTAPTQAPMSNSPSKPSLPFQTSQSTGTEPFFKQKSLLLKQKQLNNSSVSSPQQNPWSNCKALPNSLPTEYPGCVPVCEGVSKLEESSKATPAEMDLAHNSQSMHASSASKSVLEVTQKATPNPSLLAAEDQVPCEKCGSLVPVWDMPEHMDYHFALELQKSFLQPHSSNPQVVSAVSHQGKRNPKSPLACTNKRPRPEGMQTLESFFKPLTH
notes: human DNA polymerase eta (pol η), single subunit; N-terminal catalytic core residues 1-475, C-terminal portion residues 476-713; also called unlabeled pol η; source: recombinant, purified from the pET21A-hPol η expression vector (modified protocol of Li et al., 2013)
Regarding B1, the Ki in experiment [1] was determined as 112 ± 15.5 nM. Further, in experiment [2], the “KD for Cy5-PCNA loaded on forked Cy3-P/T DNA (pol η holoenzyme formation)” value is 28 ± 5.38 nM.
